From IntAct's records for PubMed 20723758

B1: Epidermal growth factor receptor (Drosophila melanogaster (Fruit fly)), P04412 (parent)
chain: MLLRRRNGPCPFPLLLLLLAHCICIWPASAARDRYARQNNRQRHQDIDRDRDRDRFLYRSSSAQNRQRGGANFALGLGANGVTIPTSLEDKNKNEFVKGKICIGTKSRLSVPSNKEHHYRNLRDRYTNCTYVDGNLKLTWLPNENLDLSFLDNIREVTGYILISHVDVKKVVFPKLQIIRGRTLFSLSVEEEKYALFVTYSKMYTLEIPDLRDVLNGQVGFHNNYNLCHMRTIQWSEIVSNGTDAYYNYDFTAPERECPKCHESCTHGCWGEGPKNCQKFSKLTCSPQCAGGRCYGPKPRECCHLFCAGGCTGPTQKDCIACKNFFDEAVSKEECPPMRKYNPTTYVLETNPEGKYAYGATCVKECPGHLLRDNGACVRSCPQDKMDKGGECVPCNGPCPKTCPGVTVLHAGNIDSFRNCTVIDGNIRILDQTFSGFQDVYANYTMGPRYIPLDPERREVFSTVKEITGYLNIEGTHPQFRNLSYFRNLETIHGRQLMESMFAALAIVKSSLYSLEMRNLKQISSGSVVIQHNRDLCYVSNIRWPAIQKEPEQKVWVNENLRADLCEKNGTICSDQCNEDGCWGAGTDQCLTCKNFNFNGTCIADCGYISNAYKFDNRTCKICHPECRTCNGAGADHCQECVHVRDGQHCVSECPKNKYNDRGVCRECHATCDGCTGPKDTIGIGACTTCNLAIINNDATVKRCLLKDDKCPDGYFWEYVHPQEQGSLKPLAGRAVCRKCHPLCELCTNYGYHEQVCSKCTHYKRREQCETECPADHYTDEEQRECFQRHPECNGCTGPGADDCKSCRNFKLFDANETGPYVNSTMFNCTSKCPLEMRHVNYQYTAIGPYCAASPPRSSKITANLDVNMIFIITGAVLVPTICILCVVTYICRQKQKAKKETVKMTMALSGCEDSEPLRPSNIGANLCKLRIVKDAELRKGGVLGMGAFGRVYKGVWVPEGENVKIPVAIKELLKSTGAESSEEFLREAYIMASEEHVNLLKLLAVCMSSQMMLITQLMPLGCLLDYVRNNRDKIGSKALLNWSTQIAKGMSYLEEKRLVHRDLAARNVLVQTPSLVKITDFGLAKLLSSDSNEYKAAGGKMPIKWLALECIRNRVFTSKSDVWAFGVTIWELLTFGQRPHENIPAKDIPDLIEVGLKLEQPEICSLDIYCTLLSCWHLDAAMRPTFKQLTTVFAEFARDPGRYLAIPGDKFTRLPAYTSQDEKDLIRKLAPTTDGSEAIAKPDDYLQPKAAPGPSHRTDCTDEMPKLNRYCKDPSNKNSSTGDDERDSSAREVGVGNLRLDLPVDEDDYLMPTCQPGPNNNNNMNNPNQNNMAAVGVAAGYMDLIGVPVSVDNPEYLLNAQTLGVGESPIPTQTIGIPVMGGPGTMEVKVPMPGSEPTSSDHEYYNDTQRELQPLHRNRNTETRV
partner: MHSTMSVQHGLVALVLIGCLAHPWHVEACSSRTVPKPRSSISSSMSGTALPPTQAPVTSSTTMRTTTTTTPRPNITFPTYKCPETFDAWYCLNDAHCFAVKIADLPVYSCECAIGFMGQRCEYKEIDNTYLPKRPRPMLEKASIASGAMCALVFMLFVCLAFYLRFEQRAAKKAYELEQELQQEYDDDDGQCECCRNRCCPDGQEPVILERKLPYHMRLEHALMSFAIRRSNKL

Variants of: B1
Settings: with spitz_drome spi
With Y341E;N342A;T344D;Y346E;V347A;L348D the “effect of a mutation on the interaction” value was “decreasing interaction”.
